From paper PMC8439657, “Bipartite binding and partial inhibition links DEPTOR and mTOR in a mutually antagonistic embrace” (eLife, 2021)

Target: T1, mTOR FRB domain, residues 2015-2114 (human, UniProt P42345 2015-2114)
T1 construct: mTOR, human, FRB domain, residues 2015-2114; The methods describe the purification of the GST-FRB fusion and mention no TEV cleavage; also called isolated FRB domain; source: E. coli C41(DE3)RIPL, purified (Glutathione-Sepharose, HiTrapQ, Superdex 75)
Assay: NMR titration; up to 220 µM unlabelled linker-PDZ added to 40 µM 15N-labelled FRB; 1H-15N BEST-TROSY, chemical shift perturbation; 278K, pH 8, 50 mM HEPES, 200 mM NaCl
Conditions: both partners purified

T1 sequence (P42345 2015-2114): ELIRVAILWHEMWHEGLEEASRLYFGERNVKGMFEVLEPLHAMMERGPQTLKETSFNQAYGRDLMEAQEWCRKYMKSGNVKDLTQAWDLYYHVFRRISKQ

B1: DEPTOR long-linker-PDZ, residues 228-409 (domain or fragment)
chain: MELLNEKSPSSQETHDSPFCLRKQSHDNRKSTSFMSVSPSKEIKIVSAVRRSSMSSCGSSGYFSSSPTLSSSPPVLCNPKSVLKRPVTSEELLTPGAPYARKTFTIVGDAVGWGFVVRGSKPCHIQAVDPSGPAAAAGMKVCQFVVSVNGLNVLHVDYRTVSNLILTGPRTIVMEVMEELEC
modifications: GST tag left out (TEV-cleavable). pOPL111 states no variant, so the reference sequence is used. The full-length WT clone is the S204/N389 natural variant, so residue 389 of this construct may be N …
Kd: ~500 µM
